The target in one assay is T1, human S100A5 (human).
T1 sequence (P33763 1-92, looked up): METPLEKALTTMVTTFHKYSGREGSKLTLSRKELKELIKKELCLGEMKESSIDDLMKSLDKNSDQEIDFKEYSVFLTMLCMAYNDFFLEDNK
Put plainly: ITC. In general terms: ITC needs no label: the signal is the heat of the interaction.

The next assay has as its target human S100A6 (human). Put plainly: ITC.

Bounds are passed on as bounds.

As to “peptide from Siah-interacting protein (SIP) (from UniProt Q9HB71 188-218)”, the values for the equilibrium dissociation constant (Kd) with human S100A5 (human) and in the assay with human S100A6 (human) were greater than 100 µM and 20 µM, respectively.

These data come from paper doi:10.1101/207324.
